{"source": "patent US20180371086A1", "experiment_in_all_cases": "cell-based or functional assay", "key": {"[1]": {"target": "HIV-1 Env of isolate 8110 (HIV-1)"}, "[2]": {"target": "HIV-1 Env of isolate 8117 (HIV-1)"}, "[3]": {"target": "HIV-1 Env of isolate 8106 (HIV-1)"}, "[4]": {"target": "HIV-1 Env of isolate 8359 (HIV-1)"}, "[5]": {"target": "HIV-1 Env of isolate 92US727 (HIV-1)"}, "[6]": {"target": "HIV-1 Env of isolate 8134 (HIV-1)"}, "[7]": {"target": "HIV-1 Env gp120 of virus CH058, on infected cells (HIV-1)"}, "[8]": {"target": "HIV-1 Env of isolate 8398 (HIV-1)"}, "[9]": {"target": "HIV-1 Env of clone REJO (HIV-1)"}, "[10]": {"target": "HIV-1 Env of isolate 8320 (HIV-1)"}, "[11]": {"target": "HIV-1 Env gp120 of virus 92US727, on infected cells (HIV-1)"}, "[12]": {"target": "HIV-1 Env of isolate 8176 (HIV-1)"}}, "data": [{"substance": "PGT-121.60 (antibody)", "values": [{"measurement": "IC50 (neutralization, CEM.NKr.CCR5.LucR based assay)", "setting": "[1]", "value": 0.514, "unit": "µg/mL"}, {"measurement": "IC50 (neutralization, CEM.NKr.CCR5.LucR based assay)", "setting": "[2]", "value": "> 100", "unit": "µg/mL"}, {"measurement": "IC50 (neutralization, CEM.NKr.CCR5.LucR based assay)", "setting": "[3]", "value": 0.091, "unit": "µg/mL"}, {"measurement": "IC50 (neutralization, CEM.NKr.CCR5.LucR based assay)", "setting": "[4]", "value": 0.337, "unit": "µg/mL"}, {"measurement": "IC50 (neutralization, CEM.NKr.CCR5.LucR based assay)", "setting": "[5]", "value": 0.013, "unit": "µg/mL"}, {"measurement": "IC50 (neutralization, CEM.NKr.CCR5.LucR based assay)", "setting": "[6]", "value": 0.062, "unit": "µg/mL"}, {"measurement": "Maximum percent of HIV-infected cells killed; PBMC-derived effector cells; donor 1003277; virus CHO58", "setting": "[7]", "value": 66.2, "unit": "%"}, {"measurement": "Maximum percent of HIV-infected cells killed; PBMC-derived effector cells; donor 1004344; virus CHO58", "setting": "[7]", "value": 82.8, "unit": "%"}, {"measurement": "Maximum percent of HIV-infected cells killed; tonsil-derived effector cells; donor 1003277; virus CHO58", "setting": "[7]", "value": 10.9, "unit": "%"}, {"measurement": "Maximum percent of HIV-infected cells killed; tonsil-derived effector cells; donor 1004344; virus CHO58", "setting": "[7]", "value": 0, "unit": "%"}, {"measurement": "Potency (IC50) of killing HIV-infected cells; PBMC-derived effector cells; donor 1003277; virus CHO58", "setting": "[7]", "value": 0.706, "unit": "µg/mL"}, {"measurement": "Potency (IC50) of killing HIV-infected cells; PBMC-derived effector cells; donor 1004344; virus CHO58", "setting": "[7]", "value": 0.094, "unit": "µg/mL"}, {"measurement": "Potency (IC50) of killing HIV-infected cells; tonsil-derived effector cells; donor 1003277; virus CHO58", "setting": "[7]", "value": "> 10", "unit": "µg/mL"}, {"measurement": "Potency (IC50) of killing HIV-infected cells; tonsil-derived effector cells; donor 1004344; virus CHO58", "setting": "[7]", "value": "> 10", "unit": "µg/mL"}, {"measurement": "IC50 (neutralization, CEM.NKr.CCR5.LucR based assay)", "setting": "[8]", "value": 0.028, "unit": "µg/mL"}, {"measurement": "IC50 (neutralization, CEM.NKr.CCR5.LucR based assay)", "setting": "[9]", "value": "> 100", "unit": "µg/mL"}, {"measurement": "IC50 (neutralization, CEM.NKr.CCR5.LucR based assay)", "setting": "[10]", "value": "> 100", "unit": "µg/mL"}, {"measurement": "Maximum percent of HIV-infected cells killed; PBMC-derived effector cells; donor 1004344; virus 92US727", "setting": "[11]", "value": 63.7, "unit": "%"}, {"measurement": "Maximum percent of HIV-infected cells killed; tonsil-derived effector cells; donor 1004344; virus 92US727", "setting": "[11]", "value": 0, "unit": "%"}, {"measurement": "Potency (IC50) of killing HIV-infected cells; PBMC-derived effector cells; donor 1004344; virus 92US727", "setting": "[11]", "value": 0.014, "unit": "µg/mL"}, {"measurement": "Potency (IC50) of killing HIV-infected cells; tonsil-derived effector cells; donor 1004344; virus 92US727", "setting": "[11]", "value": "> 10", "unit": "µg/mL"}, {"measurement": "IC50 (neutralization, CEM.NKr.CCR5.LucR based assay)", "setting": "[12]", "value": 0.028, "unit": "µg/mL"}]}]}
